Experimental findings from paper PMC12366701 are described below.

Experiment [1] concerns the target porcine double-stabilized microtubules (dsMTs) (porcine (endogenous in pig brain)) (UniProt P02550). The experiment can be described thus: TIRF microscopy binding assay; porcine dsMTs attached to coverslips via an anti-β-tubulin antibody; 100 nM Janelia Fluor 549-labelled TTLL11 variants in 40 mM tris-HCl pH 7.0, 1 mM TCEP, 1 mM MgCl2, 5% glycerol, casein, 10 μM paclitaxel; 22°C; intensity per μm of MT normalized to the control.
Sequence of UniProt P02550 (P02550 whole entry, chain 1 of 2): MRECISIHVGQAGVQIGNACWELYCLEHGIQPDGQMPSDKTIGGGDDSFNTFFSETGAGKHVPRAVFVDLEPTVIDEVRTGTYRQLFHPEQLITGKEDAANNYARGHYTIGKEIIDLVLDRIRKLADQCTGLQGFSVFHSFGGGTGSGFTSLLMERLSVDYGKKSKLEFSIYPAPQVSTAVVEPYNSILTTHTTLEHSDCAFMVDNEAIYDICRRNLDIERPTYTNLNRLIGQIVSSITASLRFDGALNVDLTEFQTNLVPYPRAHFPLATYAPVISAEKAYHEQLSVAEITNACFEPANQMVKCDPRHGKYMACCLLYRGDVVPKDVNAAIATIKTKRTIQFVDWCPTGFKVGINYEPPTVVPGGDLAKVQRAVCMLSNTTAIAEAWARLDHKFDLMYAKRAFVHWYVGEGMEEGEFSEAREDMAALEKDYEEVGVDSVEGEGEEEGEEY
Sequence of UniProt P02550 (P02554 whole entry, chain 2 of 2, further chain): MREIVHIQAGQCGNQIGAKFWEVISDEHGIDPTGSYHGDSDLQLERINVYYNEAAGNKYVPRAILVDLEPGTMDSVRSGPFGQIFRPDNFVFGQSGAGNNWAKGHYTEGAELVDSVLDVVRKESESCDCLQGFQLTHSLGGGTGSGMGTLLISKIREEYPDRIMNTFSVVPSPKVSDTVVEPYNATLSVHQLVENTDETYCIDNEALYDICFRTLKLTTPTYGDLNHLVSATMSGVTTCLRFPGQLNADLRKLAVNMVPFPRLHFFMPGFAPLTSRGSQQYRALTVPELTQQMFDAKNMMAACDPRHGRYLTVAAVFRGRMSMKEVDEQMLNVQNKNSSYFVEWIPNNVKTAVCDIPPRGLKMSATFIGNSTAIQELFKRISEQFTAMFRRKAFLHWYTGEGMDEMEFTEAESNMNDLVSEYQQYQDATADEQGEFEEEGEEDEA

For experiment [2], the target named is AspN-treated porcine dsMTs (β-tubulin C-tail removed) (porcine (endogenous in pig brain)) (UniProt P02550). Described as above.

“hTTLL11 R601E mutant (from UniProt Q8NHH1 1-710) (enzyme)” gave a percent reduction of the fluorescence signal intensity in experiment [1] of 60%.

For “hTTLL11 I594W mutant (from UniProt Q8NHH1 1-710) (enzyme)”, in experiment [1], the percent reduction of the fluorescence signal intensity turned out to be 80%.

B1: human TTLL11 (hTTLL11), full-length (enzyme)
chain: MRRGSSESELAARWEAEAVAAAKAAAKAEAEATAETVAEQVRVDAGAAGEPECKAGEEQPKVLAPAPAQPSAAEEGNTQVLQRPPPTLPPSKPKPVQGLCPHGKPRDKGRSCKRSSGHGSGENGSQRPVTVDSSKARTSLDALKISIRQLKWKEFPFGRRLPCDIYWHGVSFHDNDIFSGQVNKFPGMTEMVRKITLSRAVRTMQNLFPEEYNFYPRSWILPDEFQLFVAQVQMVKDDDPSWKPTFIVKPDGGCQGDGIYLIKDPSDIRLAGTLQSRPAVVQEYICKPLLIDKLKFDIRLYVLLKSLDPLEIYIAKDGLSRFCTEPYQEPTPKNLHRIFMHLTNYSLNIHSGNFIHSDSASTGSKRTFSSILCRLSSKGVDIKKVWSDIISVVIKTVIALTPELKVFYQSDIPTGRPGPTCFQILGFDILLMKNLKPILLEVNANPSMRIEHEHELSPGVFENVPSLVDEEVKVAVIRDTLRLMDPLKKKRENQSQQLEKPFAGKEDALDGELTSAPDCNANPEAHLPSICLKQVFPKYAKQFNYLRLVDRMANLFIRFLGIKGTMKLGPTGFRTFIRSCKLSSSSLSMAAVDILYIDITRRWNSMTLDQRDSGMCLQAFVEAFFFLAQRKFKMLPLHEQVASLIDLCEYHLSLLDEKRLVCGRGVPSGGRPPHRGPPQEPSPSAQPAGDNPPPRTSCANKLSHPRHTLS
modifications: Janelia Fluor 549-HALO probe on the HALO tag (TIRF assay)
As to B1, the percent lower fluorescence signal than on intact MTs in experiment [2] worked out at 50%.
